Experimental data from patent publication US20170022273A1 (SORRENTO THERAPEUTICS, published 2017).
Positions count from the first letter of the chain named. Values belong to the binder of their own block, whether it stands above or below them.

How the values were obtained:
[1] = biological target: T1, Recombinant human LAG3/His (human, UniProt P18627 23-450); test: Biacore SPR, antibody captured on anti-human Fc CM5 chip, LAG3/His as analyte, 1:1 Langmuir fit
T1 construct: Analyte in the Biacore assay, serially diluted in HBS-EP; not shown: His tag
T1 sequence (looked up): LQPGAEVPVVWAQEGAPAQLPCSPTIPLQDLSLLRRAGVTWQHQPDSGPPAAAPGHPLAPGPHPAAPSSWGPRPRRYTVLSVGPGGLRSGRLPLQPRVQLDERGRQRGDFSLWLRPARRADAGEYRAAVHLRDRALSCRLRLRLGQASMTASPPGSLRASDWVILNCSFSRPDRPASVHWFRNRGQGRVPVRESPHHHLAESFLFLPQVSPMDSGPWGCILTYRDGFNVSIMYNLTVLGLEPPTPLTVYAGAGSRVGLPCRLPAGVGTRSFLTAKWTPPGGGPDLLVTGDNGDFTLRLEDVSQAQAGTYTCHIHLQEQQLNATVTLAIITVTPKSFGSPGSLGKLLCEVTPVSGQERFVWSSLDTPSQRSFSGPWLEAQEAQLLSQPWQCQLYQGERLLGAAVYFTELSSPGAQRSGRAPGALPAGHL
Method: The binding affinity of antibody L3C5 for human LAG3 was also tested using a BiaCore assay. […] Biacore was used to measure the affinity of LAG3 antibody L3C5. Anti-human Fc antibody (GE, BR-1008-39) was immobilized on CM5 sensor chip to approximately 5000 RU using standard NHS/EDC coupling methodology. Antibody (approximately 2 ug/ml) were captured for 60 s at a flow rate 10 uL/min. Recombinant human LAG3/His was serially diluted in running buffer (HBS-EP). All measurements were conducted with a flow rate of 30 μL/min Surfaces were regenerated with 3M MgCl2 (from human antibody kit) for 60 s. A 1:1 (Langmuir) binding model was used to fit the data.

[2] = biological target: T2, recombinant mouse LAG3/Fc (mouse, UniProt Q61790 24-442); test: ELISA, plate coated with 2 ug/mL recombinant mouse LAG3/Fc, anti-human Lambda HRP detection
T2 construct: Coated on the ELISA plate at 2 ug/mL; not shown: Fc part of the LAG3/Fc fusion
T2 sequence (looked up): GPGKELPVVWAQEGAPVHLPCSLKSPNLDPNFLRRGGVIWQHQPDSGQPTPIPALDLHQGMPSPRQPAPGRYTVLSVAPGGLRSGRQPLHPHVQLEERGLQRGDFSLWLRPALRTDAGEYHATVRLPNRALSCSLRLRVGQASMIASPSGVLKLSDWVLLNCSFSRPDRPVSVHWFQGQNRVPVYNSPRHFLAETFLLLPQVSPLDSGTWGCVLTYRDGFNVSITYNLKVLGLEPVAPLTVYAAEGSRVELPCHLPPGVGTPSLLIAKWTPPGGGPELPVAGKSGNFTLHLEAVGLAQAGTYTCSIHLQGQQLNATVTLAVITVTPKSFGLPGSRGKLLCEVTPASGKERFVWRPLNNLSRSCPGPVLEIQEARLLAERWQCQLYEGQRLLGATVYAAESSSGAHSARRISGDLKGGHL
Method: (§1) An analysis of the cross-reactivity of various LAG3 antibodies to recombinant mouse LAG3 and human LAG3 was also performed. A Maxisorb ELISA plate was coated with 2 ug/mL recombinant human, and mouse LAG3/Fc (blank: PBS). Incubated overnight at 4° C. The plate was washed 3 times with PBS-Tween (PBST), then blocked with Casein blocking buffer for 1 hour at room temperature. Next, IgGs diluted in casein (about 5ug/ml) were added, and incubated 30 min with shaking. The plate was washed 3 times with PBST. Horseradish peroxidase (HRP)-conjugated goat anti-human Lambda HRP (1:1000 in casein) was added, then 3,3′,5,5′-Tetramethylbenzidine (TMB) was added as substrate and developed 30 min 2M H2SO4 was used to stop the reaction and the OD was read at 450 nm Anti-AIP antibody C7 was used as a control antibody.

[3] = biological target: T3, recombinant human LAG3/Fc (human, UniProt P18627 23-450); test: ELISA, plate coated with 2 ug/mL recombinant human LAG3/Fc, IgG about 5ug/ml
T3 construct: Coated on the ELISA plate at 2 ug/mL; not shown: Fc part of the LAG3/Fc fusion
T3 sequence (looked up): T1 sequence (looked up)
Method: as §1

B1: L3C5 (antibody, V domains shown)
VH: QVQLVQSGSELKKPGASVKVSCKASGYTFTNYYMHWVRQAPGQGLEWMGIINPSGGATNYAQKFQGRVTMTRDTSTSTVYMELSSLRSEDTAVYYCARDSGYDLGYGMDVWGQGTLVTVSS
VL: QSVLTQPASVSGSPGQSITISCTGTSSDVGGYNYVSWYQQHPGKAPKLMIYDVSNRPSGASNRFSGSKSGNTASLTISGLQAEDEADYYCSSYTNRNTLLFGGGTKLTVL
notes: Captured on an anti-human Fc antibody chip in the Biacore assay, so a whole antibody with a human Fc; also called LAG3 antibody L3C5; 13
- Ka [1]: 6.6e+06 M⁻¹
- Kd [1]: 152 nM
- koff [1]: 0.0717 s⁻¹
- kon [1]: 473000 M⁻¹ s⁻¹

B2: L33H11 (antibody, V domains shown)
VH: QVQLVQSGAEVKKPGASVKVSCKASGYTFTSYYMHWVRQAPGQGLEWMGIINPSAGSTSYAQKFQGRVTMTRDTSTSTVYMELSSLRSEDTAVYYCARELMATGGFDYWGQGTLVTVSS
VL: B1 VL with Q1L, S2P, S54T, A60V, N95S, R96S, K106Q
notes: Tested as a fully human IgG with a lambda light chain; also called anti-hLAG3 antibody L33H11
- binding result [2]: no binding (tested: about 5ug/ml)
- binding result [3]: binds

B3: L32D10 (antibody, V domains shown)
VH: B2 VH
VL: B1 VL with A8P, V10A, I18V, N33D, P42Q, A60V, N95S, R96S, N97T, L100V
notes: Tested as a fully human IgG with a lambda light chain; also called anti-hLAG3 antibody L32D10
- binding result [2]: no binding (tested: about 5ug/ml)
- binding result [3]: binds

The remaining lines, values ahead:

- binding result [2]: no binding (tested: about 5ug/ml)
- binding result [3]: binds
B4: L35G6 (antibody, V domains shown)
VH: B2 VH
VL: QAGLTQPASVSGSPGQSITISCTGSSSDVGGYSYVSWYQKHPGKAPKLMIYDVTNRPSGVSNRFSGSKSGNTASLTISGLQAEDEADYYCSTYTRSNTLVFGPGTKVTVL
notes: Tested as a fully human IgG with a lambda light chain (detected with anti-human Lambda HRP); also called anti-hLAG3 antibody L35G6

- binding result [2]: no binding (tested: about 5ug/ml)
- binding result [3]: binds
B5: L35D4 (antibody, V domains shown)
VH: B2 VH
VL: QSVLTQPPSASGSPGQSVTISCTGTSSDVGGYNYVSWYQQYPGKAPRLMIFEVTERASGVPDRFSGSKSGNTASLTVSGLQTEDEAVYFCSSYSGSNNPGAMFGGGTKLTVL
notes: Tested as a fully human IgG with a lambda light chain; also called anti-hLAG3 antibody L35D4

- binding result [2]: no binding (tested: about 5ug/ml)
- binding result [3]: binds
B6: L32A4 (antibody, V domains shown)
VH: B2 VH
VL: QSVLTQPASVSGSPGQSITISCTGTSSDIGAYNFVSWYQQHPGKAPKLMIYGVSNRPSGVSSRFSGSKSGSTASLTISGLQAEDEADYYCSSYTTSGSAVFGTGTKLTVL
notes: Tested as a fully human IgG with a lambda light chain; also called anti-hLAG3 antibody L32A4

- binding result [2]: no binding (tested: about 5ug/ml)
- binding result [3]: binds
B7: L32A9 (antibody, V domains shown)
VH: B2 VH
VL: QSVVTQPPSVSAAPGQKVTISCSGSSSNIGNNYVSWYQQLPGTAPKLLIYDNNKRHSGIPDRFSGSTSDTSATLGITRLQTGDEADYYCGTWDSSLSAYVFGTGTKVTVL
notes: Tested as a fully human IgG with a lambda light chain; also called anti-hLAG3 antibody L32A9
